For three molecules, percent removal after washes results are on record in patent US20210322559A1.

The target of assay [1] is porcine gelatin (denatured collagen) (porcine). In words: fluorescence in crosslinked gelatin film after 6 washes at 4 °C (FIG. 6A).
Assay [2] shares this target. In words: fluorescence; CHP 15 µM premixed into 10% porcine gelatin, 5 washes at 4 °C (FIG. 6B).

Non-standard residues stand in square brackets, D forms with d. No end group written: not given here. Hyp = O=C(O)[C@@H]1C[C@@H](O)CN1 Where only a bound is given, the exact number is not on record here.

B1: 5r, (PPOGGPOOGOGOPGP-G3)2KG3K^CF (peptide)
chain: PP[Hyp]GGP[Hyp][Hyp]G[Hyp]G[Hyp]PGPGGGKGGGPGP[Hyp]G[Hyp]G[Hyp][Hyp]PGG[Hyp]PP
modifications: also: branched dimer: two arms grown from both amines of Lys19, residues 20-37 are the second arm written reversed, G3K with carboxyfluorescein on the C-terminal Lys attached at branch point Lys19
In the case of B1, the percent removal after washes at 4 °C in assay [1] and in assay [2] was over 95% each time.

B2: 6r, (PGOPPOGGPOOGOGOPGP-G3)2KG3K^CF (peptide)
chain: PG[Hyp]PP[Hyp]GGP[Hyp][Hyp]G[Hyp]G[Hyp]PGPGGGKGGGPGP[Hyp]G[Hyp]G[Hyp][Hyp]PGG[Hyp]PP[Hyp]GP
modifications: also: branched dimer: two arms grown from both amines of Lys22, residues 23-43 are the second arm written reversed, G3K with carboxyfluorescein on the C-terminal Lys attached at branch point Lys22
Turning to B2, the percent removal after washes at 4 °C in assay [1] and in assay [2] was over 95% in each case.

B3: 9r, (PGOGPGPOPOGOGPOPGOOPGGOOPPG-G3)2KG3K^CF (peptide)
chain: PG[Hyp]GPGP[Hyp]P[Hyp]G[Hyp]GP[Hyp]PG[Hyp][Hyp]PGG[Hyp][Hyp]PPGGGGKGGGGPP[Hyp][Hyp]GGP[Hyp][Hyp]GP[Hyp]PG[Hyp]G[Hyp]P[Hyp]PGPG[Hyp]GP
modifications: also: branched dimer: two arms grown from both amines of Lys31, residues 32-61 are the second arm written reversed, G3K with carboxyfluorescein on the C-terminal Lys attached at branch point Lys31
In the case of B3, the percent removal after washes at 4 °C in assay [1] and in assay [2] was over 95% throughout.
